Measured values from article PMC8569552, “Basolateral protein Scribble binds phosphatase PP1 to establish a signaling network maintaining apicobasal polarity” (The Journal of Biological Chemistry, 2021).

Target: the molecule itself
Assay: native gel or EMSA; BN-PAGE (Native-PAGE Novex Bis-Tris) of 1% Triton X-100 lysates of DLD20-2 cells expressing the tagged protein, no cross-linking; blot probed for GFP

B1: sLUR-517GFP (domain or fragment, human, UniProt Q14160 1-517, looked up)
chain: MLKCIPLWRCNRHVESVDKRHCSLQAVPEEIYRYSRSLEELLLDANQLRELPKPFFRLLNLRKLGLSDNEIQRLPPEVANFMQLVELDVSRNDIPEIPESIKFCKALEIADFSGNPLSRLPDGFTQLRSLAHLALNDVSLQALPGDVGNLANLVTLELRENLLKSLPASLSFLVKLEQLDLGGNDLEVLPDTLGALPNLRELWLDRNQLSALPPELGNLRRLVCLDVSENRLEELPAELGGLVLLTDLLLSQNLLRRLPDGIGQLKQLSILKVDQNRLCEVTEAIGDCENLSELILTENLLMALPRSLGKLTKLTNLNVDRNHLEALPPEIGGCVALSVLSLRDNRLAVLPPELAHTTELHVLDVAGNRLQSLPFALTHLNLKALWLAENQAQPMLRFQTEDDARTGEKVLTCYLLPQQPPPSLEDAGQQGSLSETWSDAPPSRVSVIQFLEAPIGDEDAEEAAAEKRGLQRRATPHPSELKVMKRSIEGRRSEACPCQPDSGSPLPAEEEKRLSAE
notes: Scribble, LAP unique region (sLUR): LRR domain of 17 LRRs, LAPSDa and LAPSDb; the discussion calls the tag mGFP; also called full-length sLUR; source: DLD20-2 cells (LAP protein-deficient DLD1), transfected clones, in lysate
Q: For B1, which “stoichiometry N” value is on record?
A: 2
